Data on four molecules can be found in patent US20250313605A1.

*1 amine or outer side, *2 acyl side, *3 side chain or, on linkers, in order; H or OH if unused. Where no end group is shown, it is not given here. Side-chain parts run from the residue outwards. [ ]: non-standard residue; d: D form. The star is where a group is joined. C20 diacid = O=C(O)CCCCCCCCCCCCCCCCCCC(=O)*; γGlu = O=C(O)[C@H](CCC(=O)[*:2])N[*:1]; αMeL = CC(C)C[C@](C)(N)C(=O)O; αMeK = C[C@](N)(CCCCN)C(=O)O; AEEA = NCCOCCOCC(=O)O; Aib = CC(C)(N)C(=O)O

Assay [1] addresses human glucagon receptor (human), P47871. Put plainly: radioligand competition SPA, HEK293 membranes. (In general: In a radioligand displacement assay an active substance lowers the binding of a labelled ligand.)
Assay [2] deals with T1, human GLP-1 receptor (human), P43220.
T1 chain: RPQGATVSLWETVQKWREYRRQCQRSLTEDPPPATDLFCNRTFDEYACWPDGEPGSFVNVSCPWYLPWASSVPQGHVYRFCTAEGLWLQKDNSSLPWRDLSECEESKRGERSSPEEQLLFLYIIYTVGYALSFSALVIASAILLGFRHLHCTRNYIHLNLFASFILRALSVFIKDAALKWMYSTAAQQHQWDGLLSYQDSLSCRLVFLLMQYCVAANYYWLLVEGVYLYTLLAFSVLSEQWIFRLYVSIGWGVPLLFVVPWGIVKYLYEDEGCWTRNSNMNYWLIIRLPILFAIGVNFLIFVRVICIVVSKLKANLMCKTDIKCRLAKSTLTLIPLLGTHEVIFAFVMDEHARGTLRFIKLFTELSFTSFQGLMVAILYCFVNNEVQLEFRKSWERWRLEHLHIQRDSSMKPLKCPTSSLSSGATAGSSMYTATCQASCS
The experiment in a line: radioligand competition SPA, HEK293 membranes.

Assay [3] concerns the target T2, human GIP receptor (human), P48546.
T2 chain: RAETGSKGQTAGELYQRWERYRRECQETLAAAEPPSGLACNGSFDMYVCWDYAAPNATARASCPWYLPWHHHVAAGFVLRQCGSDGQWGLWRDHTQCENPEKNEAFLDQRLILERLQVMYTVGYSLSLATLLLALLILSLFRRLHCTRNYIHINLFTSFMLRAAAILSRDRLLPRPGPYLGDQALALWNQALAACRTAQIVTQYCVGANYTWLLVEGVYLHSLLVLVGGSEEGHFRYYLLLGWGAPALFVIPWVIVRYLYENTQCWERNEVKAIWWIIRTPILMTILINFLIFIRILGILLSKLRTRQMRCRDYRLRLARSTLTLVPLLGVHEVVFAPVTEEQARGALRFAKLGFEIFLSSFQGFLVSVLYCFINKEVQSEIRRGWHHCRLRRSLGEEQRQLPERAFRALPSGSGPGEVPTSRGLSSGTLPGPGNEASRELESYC
The experiment in a line: radioligand competition SPA, HEK293 membranes.

For assay [4], the target named is human glucagon receptor (human), P47871. Put plainly: cell-based or functional assay.
Assay [5] addresses T1, human GLP-1 receptor (human), P43220. The experiment in a line: cell-based or functional assay.
The target of assay [6] is T2, human GIP receptor (human), P48546. Put plainly: cell-based or functional assay.

human glucagon receptor (human), P47871, sequence (P47871 26-477): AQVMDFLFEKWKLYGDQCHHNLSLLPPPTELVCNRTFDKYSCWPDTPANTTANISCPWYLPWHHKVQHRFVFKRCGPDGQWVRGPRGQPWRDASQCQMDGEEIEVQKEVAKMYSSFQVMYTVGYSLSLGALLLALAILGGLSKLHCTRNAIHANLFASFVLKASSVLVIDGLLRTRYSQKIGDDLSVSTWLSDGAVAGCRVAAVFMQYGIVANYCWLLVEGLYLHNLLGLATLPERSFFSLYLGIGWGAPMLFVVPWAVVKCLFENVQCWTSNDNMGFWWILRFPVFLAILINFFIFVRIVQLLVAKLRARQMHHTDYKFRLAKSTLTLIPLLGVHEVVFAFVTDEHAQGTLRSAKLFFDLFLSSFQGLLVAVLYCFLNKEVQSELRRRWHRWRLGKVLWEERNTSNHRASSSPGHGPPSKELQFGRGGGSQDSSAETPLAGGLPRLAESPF

A word on the Ki: it is a measure of affinity in units of concentration, obtained from inhibition or displacement. A higher Ki goes with a looser hold on the target. Regarding Y[Aib]QGTFTSDYSI[αMeL]LDKK([AEEA-γGlu-C20 diacid])AQHAFIEYLLEGGPSSGAPPPS-NH2 [Example 10], the Ki in assay [1] was determined as 7.37 nM; in assay [2], 12 nM; in assay [3] it was 0.118 nM. The results for the cAMP EC50 (0.1% casein) in assay [4], in assay [5] and in assay [6] were 0.123 nM, 0.143 nM and 0.0928 nM, respectively. The cAMP EC50 (FBS and BSA present) in assay [4] was determined as 8.42 nM; in assay [5], 19.3 nM; in assay [6] it was 4.3 nM.

B1: Example 1 (peptide)
peptide: H-Y[Aib]QGTFTSDYSI[αMeL]LDKK([AEEA-AEEA-γGlu-C20 diacid])AQ[αMeK]AFIEYLLA[Aib]GPSSGAPPPS-NH2
SMILES: CC[C@H](C)[C@H](NC(=O)[C@H](Cc1ccccc1)NC(=O)[C@H](C)NC(=O)[C@](C)(CCCCN)NC(=O)[C@H](CCC(N)=O)NC(=O)[C@H](C)NC(=O)[C@H](CCCCNC(=O)COCCOCCNC(=O)COCCOCCNC(=O)CC[C@H](NC(=O)CCCCCCCCCCCCCCCCCCC(=O)O)C(=O)O)NC(=O)[C@H](CCCCN)NC(=O)[C@H](CC(=O)O)NC(=O)[C@H](CC(C)C)NC(=O)[C@](C)(CC(C)C)NC(=O)[C@@H](NC(=O)[C@H](CO)NC(=O)[C@H](Cc1ccc(O)cc1)NC(=O)[C@H](CC(=O)O)NC(=O)[C@H](CO)NC(=O)[C@@H](NC(=O)[C@H](Cc1ccccc1)NC(=O)[C@@H](NC(=O)CNC(=O)[C@H](CCC(N)=O)NC(=O)C(C)(C)NC(=O)[C@@H](N)Cc1ccc(O)cc1)[C@@H](C)O)[C@@H](C)O)[C@@H](C)CC)C(=O)N[C@@H](CCC(=O)O)C(=O)N[C@@H](Cc1ccc(O)cc1)C(=O)N[C@@H](CC(C)C)C(=O)N[C@@H](CC(C)C)C(=O)N[C@@H](C)C(=O)NC(C)(C)C(=O)NCC(=O)N1CCC[C@H]1C(=O)N[C@@H](CO)C(=O)N[C@@H](CO)C(=O)NCC(=O)N[C@@H](C)C(=O)N1CCC[C@H]1C(=O)N1CCC[C@H]1C(=O)N1CCC[C@H]1C(=O)N[C@@H](CO)C(N)=O
B1: the Ki was 8.41 nM in assay [1], 2.64 nM in assay [2] and 0.0469 nM in assay [3]. Further, the cAMP EC50 (0.1% casein) in assay [4] stood at 0.114 nM; in assay [5] it was 0.153 nM; in assay [6], 0.0523 nM. Also, the values for the cAMP EC50 (FBS and BSA present) in assay [4], in assay [5] and in assay [6] were 2.54 nM, 7.49 nM and 0.914 nM, respectively.

B2: Example 8 (peptide)
peptide: Y[Aib]QGTFTSDYSILLDKK([AEEA-AEEA-γGlu-C20 diacid])AQ[αMeK]AFIEYLLEGGPSSGAPPPS-NH2
modifications: N-terminus assumed
SMILES: CC[C@H](C)[C@H](NC(=O)[C@H](Cc1ccccc1)NC(=O)[C@H](C)NC(=O)[C@](C)(CCCCN)NC(=O)[C@H](CCC(N)=O)NC(=O)[C@H](C)NC(=O)[C@H](CCCCNC(=O)COCCOCCNC(=O)COCCOCCNC(=O)CC[C@H](NC(=O)CCCCCCCCCCCCCCCCCCC(=O)O)C(=O)O)NC(=O)[C@H](CCCCN)NC(=O)[C@H](CC(=O)O)NC(=O)[C@H](CC(C)C)NC(=O)[C@H](CC(C)C)NC(=O)[C@@H](NC(=O)[C@H](CO)NC(=O)[C@H](Cc1ccc(O)cc1)NC(=O)[C@H](CC(=O)O)NC(=O)[C@H](CO)NC(=O)[C@@H](NC(=O)[C@H](Cc1ccccc1)NC(=O)[C@@H](NC(=O)CNC(=O)[C@H](CCC(N)=O)NC(=O)C(C)(C)NC(=O)[C@@H](N)Cc1ccc(O)cc1)[C@@H](C)O)[C@@H](C)O)[C@@H](C)CC)C(=O)N[C@@H](CCC(=O)O)C(=O)N[C@@H](Cc1ccc(O)cc1)C(=O)N[C@@H](CC(C)C)C(=O)N[C@@H](CC(C)C)C(=O)N[C@@H](CCC(=O)O)C(=O)NCC(=O)NCC(=O)N1CCC[C@H]1C(=O)N[C@@H](CO)C(=O)N[C@@H](CO)C(=O)NCC(=O)N[C@@H](C)C(=O)N1CCC[C@H]1C(=O)N1CCC[C@H]1C(=O)N1CCC[C@H]1C(=O)N[C@@H](CO)C(N)=O
On to B2, for which the figures for the Ki in assay [1], in assay [2] and in assay [3] were 30.4 nM, 29.4 nM and 0.0958 nM, respectively. In addition, the cAMP EC50 (0.1% casein) in assay [4] turned out to be 0.12 nM; in assay [5], 0.117 nM; in assay [6] it was 0.114 nM. In addition, the cAMP EC50 (FBS and BSA present) in assay [4] worked out at 6.24 nM; in assay [5], 9.39 nM; in assay [6] it was 2.23 nM.

B3: Example 9 (peptide)
peptide: Y[Aib]QGTFTSDYSI[αMeL]LDKK([γGlu-γGlu-C20 diacid])AQHAFIEYLLEGGPSSGAPPPS-NH2
modifications: N-terminus assumed
SMILES: CC[C@H](C)[C@H](NC(=O)[C@H](Cc1ccccc1)NC(=O)[C@H](C)NC(=O)[C@H](Cc1c[nH]cn1)NC(=O)[C@H](CCC(N)=O)NC(=O)[C@H](C)NC(=O)[C@H](CCCCNC(=O)CC[C@H](NC(=O)CC[C@H](NC(=O)CCCCCCCCCCCCCCCCCCC(=O)O)C(=O)O)C(=O)O)NC(=O)[C@H](CCCCN)NC(=O)[C@H](CC(=O)O)NC(=O)[C@H](CC(C)C)NC(=O)[C@](C)(CC(C)C)NC(=O)[C@@H](NC(=O)[C@H](CO)NC(=O)[C@H](Cc1ccc(O)cc1)NC(=O)[C@H](CC(=O)O)NC(=O)[C@H](CO)NC(=O)[C@@H](NC(=O)[C@H](Cc1ccccc1)NC(=O)[C@@H](NC(=O)CNC(=O)[C@H](CCC(N)=O)NC(=O)C(C)(C)NC(=O)[C@@H](N)Cc1ccc(O)cc1)[C@@H](C)O)[C@@H](C)O)[C@@H](C)CC)C(=O)N[C@@H](CCC(=O)O)C(=O)N[C@@H](Cc1ccc(O)cc1)C(=O)N[C@@H](CC(C)C)C(=O)N[C@@H](CC(C)C)C(=O)N[C@@H](CCC(=O)O)C(=O)NCC(=O)NCC(=O)N1CCC[C@H]1C(=O)N[C@@H](CO)C(=O)N[C@@H](CO)C(=O)NCC(=O)N[C@@H](C)C(=O)N1CCC[C@H]1C(=O)N1CCC[C@H]1C(=O)N1CCC[C@H]1C(=O)N[C@@H](CO)C(N)=O
Take B3: the Ki is 8.27 nM in assay [1], 11.5 nM in assay [2] and 0.126 nM in assay [3]. The values for the cAMP EC50 (0.1% casein) in assay [4], in assay [5] and in assay [6] were 0.139 nM, 0.0931 nM and 0.0522 nM, respectively. In addition, the cAMP EC50 (FBS and BSA present) in assay [4] is 6.32 nM; in assay [5], 9.76 nM; in assay [6] it was 4.17 nM.
